B1: CPEB3 Ribozyme (parent)
chain: UAACAGGGGGCCACAGCAGAAGCGUUCACGUCGCAGCCCCUGUCAGAUUCUGGUGAAUCUGCGAAUUCUGCUGUAUAUCUC

Variants of: B1
Assay: self-cleavage, relative activity (ratio to wild type); higher = more cleavage; in vitro, sequencing
Procedure, shortened: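 Libraries of CPEB3 self-cleaving ribozyme mutants came from rounds of error-prone PCR and carried barcodes, which DNA sequencing matched to variants. In vitro transcription used T7 RNA polymerase at 37°C for 5 hours, with a further 15 min in DNase I before EDTA stopped the reaction; the ribozymes cleaved during both steps. The RNA was reverse transcribed with template switching and sequenced on Illumina. Relative activity is the cleaved/total read fraction of a variant divided by that of the unmutated ribozyme, averaged over three batches with at least 5 reads.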

Question: For UAACAGGGGGCCACAGCAGAAGCGUUCACGUCGCAGCCCCUGUCAGAUCCUAGUGAAUCUGCGAAUUCUGCUGUAUAUCUC [U49C G52A], which self-cleavage is on record?
Answer: 0.8

Question: With UAACAGGGGGCCACAGCAGAAGCGUUCACGUCGCAGCCCCUGUCAGAUCGUGGUGAAUCUGCGAAUUCUGCUGUAUAUCUC [U49C C50G] as the variant, how does the self-cleavage read?
Answer: 0.82

Question: With UAACAGGGGGCCACAGCAGAAGCGUUCACGUCGCAGCCCCUGUCAGAUCAUGGUGAAUCUGCGAAUUCUGCUGUAUAUCUC [U49C C50A] as the variant, how does the self-cleavage read?
Answer: 0.78

Question: With UAACAGGGGGCCACAGCAGAAGCGUUCACGUCGCAGCCCCUGUCAGAUCUUGGUGAAUCUGCGAAUUCUGCUGUAUAUCUC [U49C C50U] as the variant, how does the self-cleavage read?
Answer: 0.87

Question: Which self-cleavage does the source give for UAACAGGGGGCCACAGCAGAAGCGUUCACGUCGCAGCCCCUGUCAGAUCCUGGUGAAUCUGCUAAUUCUGCUGUAUAUCUC [U49C G63U] here?
Answer: 0.35

Question: Which self-cleavage does the source give for UAACAGGGGGCCACAGCAGAAGCGUUCACGUCGCAGCCCCUGUCAGAUCCUGGUGAAUCUGCAAAUUCUGCUGUAUAUCUC [U49C G63A] here?
Answer: 0.39

Question: With UAACAGGGGGCCACAGCAGAAGCGUUCACGUCGCAGCCCCUGUCAGAUCCAGGUGAAUCUGCGAAUUCUGCUGUAUAUCUC [U49C U51A] as the variant, how does the self-cleavage read?
Answer: 0.49

Question: With UAACAGGGGGCCACAGCAGAAGCGUUCACGUCGCAGCCCCUGUCAGAUACUGGUGAAUCUGCGAAUUCUGCUGUAUACCUC [U49A U78C] as the variant, how does the self-cleavage read?
Answer: 0.57

Question: For UAACAGGGGGCCACAGCAGAAGCGUUCACGUCGCAGCCCCUGUCAGAUACUGGUGAAUCUGCGAAUUCUGCUGUAUAGCUC [U49A U78G], which self-cleavage is on record?
Answer: 0.6

Question: Which self-cleavage does the source give for UAACAGGGGGCCACAGCAGAAGCGUUCACGUCGCAGCCCCUGUCAGAUACUGGUGAAUCUGCGAACUCUGCUGUAUAUCUC [U49A U66C] here?
Answer: 0.38

Question: For UAACAGGGGGCCACAGCAGAAGCGUUCACGUCGCAGCCCCUGUCAGAUACUGGUGAAUCUGCGAAAUCUGCUGUAUAUCUC [U49A U66A], which self-cleavage is on record?
Answer: 0.24

Question: Which self-cleavage does the source give for UAACAGGGGGCCACAGCAGAAGCGUUCACGUCGCAGCCCCUGUCAGAUCCUGGUGAAUCUGCGAAUUCUGCUAUAUAUCUC [U49C G73A] here?
Answer: 0.73

Question: For UAACAGGGGGCCACAGCAGAAGCGUUCACGUCGCAGCCCCUGUCAGAUCCUGGUGAAUCUGCGAAUUCUGCUUUAUAUCUC [U49C G73U], which self-cleavage is on record?
Answer: 0.77

Question: For UAACAGGGGGCCACAGCAGAAGCGUUCACGUCGCAGCCCCUGUCAGAUCCUGGUGAAUCUGCGAAUUCUACUGUAUAUCUC [U49C G70A], which self-cleavage is on record?
Answer: 0.44

Question: With UAACAGGGGGCCACAGCAGAAGCGUUCACGUCGCAGCCCCUGUCAGAUCCUGGUGAAUCUGCGAAUUCUUCUGUAUAUCUC [U49C G70U] as the variant, how does the self-cleavage read?
Answer: 0.2

Question: Which self-cleavage does the source give for UAACAGGGGGCCACAGCAGAAGCGUUCACGUCGCAGCCCCUGUCAGAUACUGGUGAAUCUGCGAAUUCCGCUGUAUAUCUC [U49A U69C] here?
Answer: 0.44

Question: With UAACAGGGGGCCACAGCAGAAGCGUUCACGUCGCAGCCCCUGUCAGAUACUGGUGAAUCUGCGAAUUCAGCUGUAUAUCUC [U49A U69A] as the variant, how does the self-cleavage read?
Answer: 0.34

Question: For UAACAGGGGGCCACAGCAGAAGCGUUCACGUCGCAGCCCCUGUCAGAUACUGGUGAAUCUGCGAAUUCGGCUGUAUAUCUC [U49A U69G], which self-cleavage is on record?
Answer: 0.61

Question: Which self-cleavage does the source give for UAACAGGGGGCCACAGCAGAAGCGUUCACGUCGCAGCCCCUGUCAGAUCCUGGUGAGUCUGCGAAUUCUGCUGUAUAUCUC [U49C A57G] here?
Answer: 0.35

Question: Which self-cleavage does the source give for UAACAGGGGGCCACAGCAGAAGCGUUCACGUCGCAGCCCCUGUCAGAUCCUGGUGAUUCUGCGAAUUCUGCUGUAUAUCUC [U49C A57U] here?
Answer: 0.33

Question: With UAACAGGGGGCCACAGCAGAAGCGUUCACGUCGCAGCCCCUGUCAGAUCCUGGUGAAUCUGCGAGUUCUGCUGUAUAUCUC [U49C A65G] as the variant, how does the self-cleavage read?
Answer: 0.26

Question: Which self-cleavage does the source give for UAACAGGGGGCCACAGCAGAAGCGUUCACGUCGCAGCCCCUGUCAGAUCCUGGUGAAUCUGCGACUUCUGCUGUAUAUCUC [U49C A65C] here?
Answer: 0.14

Question: With UAACAGGGGGCCACAGCAGAAGCGUUCACGUCGCAGCCCCUGUCAGAUCCUGGUGAAUCUGCGAUUUCUGCUGUAUAUCUC [U49C A65U] as the variant, how does the self-cleavage read?
Answer: 0.26

Question: With UAACAGGGGGCCACAGCAGAAGCGUUCACGUCGCAGCCCCUGUCAGAUACUGGUGAAUCAGCGAAUUCUGCUGUAUAUCUC [U49A U60A] as the variant, how does the self-cleavage read?
Answer: 0.21

Question: With UAACAGGGGGCCACAGCAGAAGCGUUCACGUCGCAGCCCCUGUCAGAUACUGGUGAAUCCGCGAAUUCUGCUGUAUAUCUC [U49A U60C] as the variant, how does the self-cleavage read?
Answer: 0.32

Question: Which self-cleavage does the source give for UAACAGGGGGCCACAGCAGAAGCGUUCACGUCGCAGCCCCUGUCAGAUACUGGUGAAUCUGCGAAUUCUGCUGUAUAUCAC [U49A U80A] here?
Answer: 0.88

Question: With UAACAGGGGGCCACAGCAGAAGCGUUCACGUCGCAGCCCCUGUCAGAUACUGGUGAAUCUGCGAAUUCUGCUGUAUAUCCC [U49A U80C] as the variant, how does the self-cleavage read?
Answer: 0.69

Question: Which self-cleavage does the source give for UAACAGGGGGCCACAGCAGAAGCGUUCACGUCGCAGCCCCUGUCAGAUACUGGUGAAUCUGCGAAUUCUGCUGUAUAUCGC [U49A U80G] here?
Answer: 0.88

Question: For UAACAGGGGGCCACAGCAGAAGCGUUCACGUCGCAGCCCCUGUCAGAUCCUGGUGAAUCUGCGAAUUCUGCUGUAUAUCUA [U49C C81A], which self-cleavage is on record?
Answer: 0.76

Question: Which self-cleavage does the source give for UAACAGGGGGCCACAGCAGAAGCGUUCACGUCGCAGCCCCUGUCAGAUCCUGGUGAAUCUGCGAAUUCUGCUGUAUAUCUU [U49C C81U] here?
Answer: 0.68

Question: For UAACAGGGGGCCACAGCAGAAGCGUUCACGUCGCAGCCCCUGUCAGAUCCUGGUGAAUCUGCGAAUUCUGCUGUAUAUCUG [U49C C81G], which self-cleavage is on record?
Answer: 0.51

Question: For UAACAGGGGGCCACAGCAGAAGCGUUCACGUCGCAGCCCCUGUCAGAUCCUGGUGGAUCUGCGAAUUCUGCUGUAUAUCUC [U49C A56G], which self-cleavage is on record?
Answer: 1.04

Question: Which self-cleavage does the source give for UAACAGGGGGCCACAGCAGAAGCGUUCACGUCGCAGCCCCUGUCAGAUCCUGGUGUAUCUGCGAAUUCUGCUGUAUAUCUC [U49C A56U] here?
Answer: 0.48

Question: For UAACAGGGGGCCACAGCAGAAGCGUUCACGUCGCAGCCCCUGUCAGAUCCUGGUGCAUCUGCGAAUUCUGCUGUAUAUCUC [U49C A56C], which self-cleavage is on record?
Answer: 0.42
